In the nanobody polyreactivity screen of Harvey et al. (2022):

Assay: yeast display, Sf9 membrane polyspecificity reagent, FACS + sequencing; frameworks hold sequencing errors
Outline: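 After 36–48 hours of galactose induction, yeast (Saccharomyces cerevisiae BJ5465) displaying a synthetic nanobody library were stained at 4 °C for 1 hour with 10% biotinylated, detergent-solubilized Sf9 membrane reagent. Streptavidin microbeads enriched the stained cells before FACS sorting into low and high (top ~1%) gates on anti-HA and streptavidin fluorescence. Each clone's polyreactivity label reflects its gate of origin.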

| Sequence | polyreactivity (PSR sort gate) |
| --- | --- |
| QVQLVESGGGLVQAGGSLRLSCAASGYIFVKNAMGWYRQAPGKERELVAAISTRGGRTYYADSVKVRFTISRDNAKNTVSLQMNSLKPEDTAVYYCAAVHHTSYYDANSYGYWGQGTQVTVSS | high polyreactivity |
| QVQLVESGGGLVQAGGSLRLSCAASGYIFVRNAMGWYRQAPGKEREFVAAISGSGGSTYYADSVKGRFTISRDNAKNTVYFQMNSMKPEDTAVYYCAADYATVTWRGIAYDYWGQGTQVTVSS | low polyreactivity |
| QVQLVESGGGLVQAGGSLRLSCAASGYIFVWYAMGWSRQAPGKERELVATISGGGGTYYADSVKGRFTISRDNAKNNVYFQMNSLNPEDTAVYYCNKGVGWTEASPYSPEYDYWGQGTQVSVSS | low polyreactivity |
| QVQLVESGGGLVQAGGSLRLSCAASGYIFVYNAMGWYRQAPGKERELVAAITDGGGSTYADSVKGRFTISRDNAKNTVYLQMNSLNPEDTAVYYCAARYSDTTWYVLYYYWGQGTQVTVSS | low polyreactivity |
| QVQLVESGGGLVQAGGSLRLSCAASGYIFWINSMGWYRQAPGKERELVAAIRYSTGRTYYADSVKGRFTISRDNAKNTVYLQMNSQKPEDTAVYYCNARSWYIRGSQEYYYWGQGTQLTVSS | high polyreactivity |
| QVQLVESGGGLVQAGGSLRLSCAASGYIFWWNAMGWYRQAPGKERELVAGISWSGSPTYYADSVKGRFTITRDNAKNTVYLQMNSLKPEDTAVYYCNAAAITLYDYDYWGQGTQVTVSS | low polyreactivity |
| QVQLVESGGGLVQAGGSLRLSCAASGYIFYDNAMGWYRQAPGKERELVAAISASGGDTYYADSVKGRFTISRDNAKNTVYLQMNSLKPEDTAVYYCAADLITYAMEFWGQGTQVTVSS | low polyreactivity |
| QVQLVESGGGLVQAGGSLRLSCAASGYIFYFYAMGWYRQAPGKERELVAAITSVGSTKYADSVKGRFTISRDNAKNTVYLQMNSLKPEDTAVYYCAARRWRSYYYWGQGTQVTVSS | high polyreactivity |
| QVQLVESGGGLVQAGGSLRLSCAASGYIFYHYAMGWYRQAPGKERELVATISLGGGRTYYADSVKGRFTISRDNAKNTVYLQMNSLKPEDTAVYYCAAKQYGYYSDYYYWGQGTQVTVSS | high polyreactivity |
| QVQLVESGGGLVQAGGSLRLSCAASGYIFYNAMGWYRQAPGKERELVAAISSSGGTTYYADSVKGRFTISRDNAKNTVFLQMNSLKPEDTAVYYCAATFRKRYPSRYDSWGQGTQVTVSS | low polyreactivity |
| QVQLVESGGGLVQAGGSLRLSCAASGYIFYNYAMGWYRQAPGKERELVAAISRRGGSTYYADSVKGRFTISRDNAKNTVYLEMNSLKPEDTAVYYCAAKQYGWNLYGYWGQGTQVTVSS | high polyreactivity |
| QVQLVESGGGLVQAGGSLRLSCAASGYIFYRYTMGWYRQAPGKERELVAAISFRGGTTYYADSVKGRFTISRDNAKNTVYLQMNSLKPEDTAVYYCAARYGYYTSDYKYYYWGQGTQVTVSS | high polyreactivity |
| QVQLVESGGGLVQAGGSLRLSCAASGYIFYTYAMGWYRQAPGKERELVAGINRGDSTNYADSVKGRFTISRDNAKNTVYLQMNSLKPEDTAVYYCNARQRTYYRTHRIRHKGNGYWGQGTQVTVSS | low polyreactivity |
| QVQLVESGGGLVQAGGSLRLSCAASGYILFAYAMGWYRQAPGKERELVATITTSGGITYYADSVKGRFTISRDNAKNTVYLQMNSLKPDDTAVYYCAAAEGCGLVTYDYWGQGTQVTVSS | low polyreactivity |
| QVQLVESGGGLVQAGGSLRLSCAASGYILRPYSKVWYRQSPGKERELLASISRSSGNTFYADSVKGRFTISRDNAKNSVYLEMNSLKPDDSAVYYCAKDRSQRDLVYFPRVIYRMDYWGQGTQVNVSS | high polyreactivity |
| QVQLVESGGGLVQAGGSLRLSCAASGYILRRNAMGWYRKAPGKERELVARINSSGGSTYYADSVKGRFTISRDNAKNTVYLQMNSLKPEDTAVYYCAKSYYRGRDYWGQGTQVTVSS | high polyreactivity |
| QVQLVESGGGLVQAGGSLRLSCAASGYILRSHAMGWYRQAPGKEWEFVAAITYSGGSTYYADSVKGRFTISRDNAKNTVYLQLNSLKPEVTAVYYCSKTTRYPRGYGYWGQGTQVTVSS | low polyreactivity |
| QVQLVESGGGLVQAGGSLRLSCAASGYILYINTMGWYRQAPGKERELVAAITYSGASTYYADSVKGRFTISRDNAKNTVYLQMNSLKPEDNGVYYCAADGYYGGYNYWGQGTQVTVSS | low polyreactivity |
| QVQLVESGGGLVQAGGSLRLSCAASGYIPYCYAMGWYRQAPGKERELVAAISSGGNTYYADSVKGRFTISRDNAKNTVYLQMNSLKPEDTAVYYCAAEFRNYIFHYKYNYWGQGTQVTVSS | high polyreactivity |
| QVQLVESGGGLVQAGGSLRLSCAASGYISGVYPMGWYRQAPGKERELVAAITKRGGNTYYADSVKGRFTISRDNAKNTVYLQMNSLKAEDTAVYYCAKKTAGHPWGPIYDYWGQGTQVTVSS | high polyreactivity |
| QVQLVESGGGLVQAGGSLRLSCAASGYIVRNAMGWYRQAPGKERQLVAAISRRGGSTYYADSVKGRFTISRDNAKNTVYLQLNSLKPEDTAVYYCAKDKVIPSFDADYYDWGQGTQVTVSS | high polyreactivity |
| QVQLVESGGGLVQAGGSLRLSCAASGYIYIRNAMGWYRQAPGKERELVAAISCTGGSTYYADSVKGRFTISRDNAKNTVYLQMKILKPEDTAVYYCNKYYRAWLLWDYGYWGQGTQVTVSS | high polyreactivity |

| Sequence | polyreactivity (PSR sort gate) |
| --- | --- |
| QVQLVESGGGLVQAGGSLRLSCAASGYIYLPYAMGWYRQAPGKERELVAAIRWSGGSTYYADSVKGRFTISRDNAKNTVYLQMNSLKPEDTAVYYCAAYYVARDRRYPKAYSYEYWGQGTQVTVSS | high polyreactivity |
| QVQLVESGGGLVQAGGSLRLSCAASGYIYNGYAMGWYRQAPGKERELVAAIDWSGGSTYYADSVKGRFTISRDNAKNTVYLQMNSLKPEDTAVYYCNASEWLSASYYWGQGTQVTVSS | high polyreactivity |
| QVQLVESGGGLVQAGGSLRLSCAASGYLRVNAMGWYRQAPGTERELVAAITGNGGRTYYADSVKGRFTISRDNAKNTVYLQMNSLKPEDTAVYYCNIAGSSRSWFGSYYWGQGTQVTVSS | high polyreactivity |
| QVQLVESGGGLVQAGGSLRLSCAASGYNFKPNTMGWYRQAPGKERELVAAITRGGRTKYADSVKGRFTISRDNAKNTVYLQMNSLKPEDTAVYYCATRVHKSTDGYDYWGQGTQVTVSS | high polyreactivity |
| QVQLVESGGGLVQAGGSLRLSCAASGYNFKRYTMGWYRQAPGKERELVAAISGGDSTNYADSVKGRFTISRDNAKNTVYLHMNSLKPEDTAVYYCAAGGLTLWHGYILGYWGQGTQVTVSS | low polyreactivity |
| QVQLVESGGGLVQAGGSLRLSCAASGYNFSIYAMGWYRQAPGKERELVAAIRSDARTYYADSVKGRFTISRDNAKNTVYLQMNSLKPEDTAVYYCAADQYSYAANRPFYRGYYWGQGTQVTVSS | high polyreactivity |
| QVQLVESGGGLVQAGGSLRLSCAASGYNFWYNGMGWYRQAPGKERELVAAITSSSGTTYYADSVKGRFTISRDNAKTTVYLQMNSLKPVDTSVYYFNAVLSSNTQCRYPGDYWGQGTQVTVSS | low polyreactivity |
| QVQLVESGGGLVQAGGSLRLSCAASGYSFRLYAMGWYRQAPAKEWELVAAISKSGGSTYYADSVKGRFTISRDNANNTVYLQMNRLKPEETADYYCAADGVARYQKGQYDYWGQGTQVTVSS | high polyreactivity |
| QVQLVESGGGLVQAGGSLRLSCAASGYSFSYNAMGWYRQAPGKERELVAAMSRTGGSTNYADSVKGRFTISRDHAKKTVDLQMNSLKPEDTAVYDCAKRYRYPSWGEYGYWGLGTQVTVSS | high polyreactivity |
| QVQLVESGGGLVQAGGSLRLSCAASGYSFVRNAMGWYIQAPGKERELVAAISGSGGSTYYADSVKGRFTISRDNAKNTVYLQMNSLKPEDTAVYYCAADYATVTWRGIAYDYWGQGTQVTVSS | low polyreactivity |
| QVQLVESGGGLVQAGGSLRLSCAASGYTFAANAMGWYRQSPGKERELVAAITSGGGSTYYADSVKGRFTISRDNAKNTVYLKMNSLNPEDTAVDYCAALQSHGVDFDNWGQGTQVTVSS | low polyreactivity |
| QVQLVESGGGLVQAGGSLRLSCAASGYTFAGYAMGWYRQAPGKERELVAAISQSGGRTYYADSVKGRFTISRDNAKNTVYLQMNSLKPEDTAVYYCNARAYYAGTYYVSRYYYWGQGTQVTVSS | high polyreactivity |
| QVQLVESGGGLVQAGGSLRLSCAASGYTFAGYAMGWYRQAPGKERELVAAISSSGGRTYYADSVKGRFTISRDNAKNTVDLQINSLKPEDTAVYYCAAYVWAYYVPYNYGYWGQGTQVTVSS | high polyreactivity |
| QVQLVESGGGLVQAGGSLRLSCAASGYTFASYDMGWYRQAPGKERELVAAIDWSGGSTYYADSVKGRFTISRDNAKNTVYLQMNSLKPEDTAVYYCAAERPWTYGSDGMDFWGQGTQVTVSS | low polyreactivity |
| QVQLVESGGGLVQAGGSLRLSCAASGYTFAWYAMGWYRQAPGKERELVAAITTSGGGTYYADSVKGRFTISRDNAKNTVYLQMNSLKPEDTAVYYCAADTWRDGDDYWGQGTQVTVSS | low polyreactivity |
| QVQLVESGGGLVQAGGSLRLSCAASGYTFDANDMGWYRQAPGTERELVARITWTGGNTYADSVKGRFTISRDNAKNTVYLQMNSLKPEDTAVYYCNAELGYVSSENYWGQGTQVTVTS | low polyreactivity |
| QVQLVESGGGLVQAGGSLRLSCAASGYTFDGYAMGWYRPAPGKERELVAAINSGGGTYYADSVKGRFTISRDYAKNTVYLQMNSLIPDDTAVYYCNKKAYRKTGLDYWGQGTQVTVSS | low polyreactivity |
| QVQLVESGGGLVQAGGSLRLSCAASGYTFDGYAMGWYRQAPGKERELVAVITKSGGRKYYADSVKGRFTISRDNAKNTVYLQMNSLKREVTAVYYCAADDSGTKDIVEGEYWGQGTQVTVSS | high polyreactivity |
| QVQLVESGGGLVQAGGSLRLSCAASGYTFDKYAMGWYRQAPGKERELVAAISSGGRTYYADSVKGRFTISRDNAKKTVYLQMNSLKPEDTAVYYCAKGSAGRGMDSWGQGTQVTVSS | low polyreactivity |
| QVQLVESGGGLVQAGGSLRLSCAASGYTFDPYDMGRYRQAPGKERELVASISWSGGDTYYADSVKGRFTISRDNAKNTVYLQMNSLKPEDTAVYYCAADRYIPRSIIMDYWGQGTQVTVSS | low polyreactivity |
| QVQLVESGGGLVQAGGSLRLSCAASGYTFDSYTMGWYRQAPGKERELFAAITRSGSSTYYADSVKGRFTISRDNAKNTVYLLMNSLKPEDTAVYYCAAGWRRAAGIQYWYGYWGQGTQVTVSS | high polyreactivity |
